The record followed here is patent US20110021367A1 (INDIAN INSTITUTE OF SCIENCE, published 2011).

T1: σ^L 1-177 (Mycobacterium tuberculosis sigma factor L, Rv0735), N-term His-tag (Mycobacterium tuberculosis, UniProt P9WGH5 1-177)
T1 construct: range 1-177; also called SigL; Mtb σ^L; not shown: N-terminal His-tag from pET-Duet1 MCS1
T1 sequence: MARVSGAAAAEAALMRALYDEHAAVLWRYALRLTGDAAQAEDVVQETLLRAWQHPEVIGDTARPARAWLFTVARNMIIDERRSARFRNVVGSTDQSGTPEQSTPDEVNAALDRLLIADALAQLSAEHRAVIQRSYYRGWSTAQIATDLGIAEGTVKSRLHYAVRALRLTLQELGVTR

B1: σ^L2 domain of M. tuberculosis σ^L (N-term His-tag σ^L 1-95) (other)
chain: MARVSGAAAAEAALMRALYDEHAAVLWRYALRLTGDAAQAEDVVQETLLRAWQHPEVIGDTARPARAWLFTVARNMIIDERRSARFRNVVGSTDQ
notes: range 1-95; not shown: N-terminal His-tag from pET-Duet1 MCS1
B2: holo-RslA 1-108 (Zn2+ bound N-terminal cytosolic domain of M. tuberculosis anti-σ^L factor RslA), N-term His-tag (other)
chain: MTMPLRGLGPPDDTGVREVSTGDDHHYAMWDAAYVLGALSAADRREFEAHLAGCPECRGAVTELCGVPALLSQLDRDEVAAISESAPTVVASGLSPELLPSLLAAVHR
modifications: Zn2+ bound in 1:1 stoichiometry (holo, reduced; three free cysteines)
notes: range 1-108; Immobilized on a CM5 chip for SPR; Self-associates into dimers and tetramers in solution; also called Mtb RslA; Rsl1A 1-108; not shown: N-terminal His-tag from pET-Duet1 MCS1

The target in data set [1] is B2. The experiment in a line: SPR (BIACORE 2000), RslA immobilized on CM5 chip, σ^L2 as analyte.
Data set [2] addresses T1, σ^L 1-177 (Mycobacterium tuberculosis …). Put plainly: SPR (BIACORE 2000), RslA immobilized on CM5 chip, σ^L as analyte.
Data set [3] concerns the molecule itself. The experiment in a line: analytical gel filtration; dynamic light scattering.

On to B1, for which, in data set [1], the Kd was approximately 2000 nM and the “fold reduction in affinity against intact σ^L” value was approximately 100 fold.
As for B2, the Kd in data set [2] is approximately 20 nM. The binding result in data set [3] is reported as “binds”.
